For one molecule, RhoA-GTP level after 15 min of EGF treatment (GST-RBD pull down) results are on record in patent publication US20180022794A1.

The assay has as its target endogenous active RhoA (RhoA-GTP) of HeLa S3 cells (UniProt P61586). Briefly: cell-based or functional assay.

endogenous active RhoA (RhoA-GTP) of HeLa S3 cells, sequence (P61586 1-190 limits assumed): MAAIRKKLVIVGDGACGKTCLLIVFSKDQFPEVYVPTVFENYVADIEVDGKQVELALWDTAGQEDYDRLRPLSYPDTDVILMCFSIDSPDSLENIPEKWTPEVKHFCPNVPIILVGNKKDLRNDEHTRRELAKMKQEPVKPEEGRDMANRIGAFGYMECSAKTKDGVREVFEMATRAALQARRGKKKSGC

B1: F-H12 (VHH, part only; not given: Fbox domain and myc tag, not shown: small tags and cut ends)
chain, part: VQLQASGGGFVQPGGSLRLSCAASGDGSRIYAMGWFRQAPGKEREFVSAISWEQDWEHYYADSVKGRFTISRDNSKNTVYLQMNSLRAEDTATYYCAAFMTPHRNLTSMYWGQGTQVTVSS
In turn, B1 came in with a RhoA-GTP level after 15 min of EGF treatment (GST-RBD pull down) of 50%.
